The text below walks through data of patent publication US8697629B2, “Modulation of intracellular signaling” (Angstrom Pharmaceuticals, Inc., priority 2010, dated 2014).

The target in one assay is T1, CD44 (Homo sapiens, UniProt P16070).
T1 construct: endogenous in cells; host or cells: SKOV3 cells
In words: Immunoprecipitation of Å6Cbiotin-crosslinked SKOV3 polypeptides, HRP-SA blotting. It is filed as binding. The note with it: SKOV3 cells, 100 μM Å6Cbiotin, BS3 crosslinking, DF1485 anti-CD44. As for the experimental part:
In FIGS. 1 and 2 SKOV3 cells were incubated with or without 100 μM Å6Cbiotin (Å6CbioXL and ConXL, respectively) for 30 min at 4° C. The cells were then crosslinked with 5 mM bis(sulfosuccinimidyl) suberate (Sulfo-DSS or BS^3) for 30 min at 4° C. and Triton X-100 lysates generated. The lysates were pre-cleared by incubating with Protein A-agarose for 2 hr at room temperature. Aliquots representing 100 μg of the cleared lysates were then incubated overnight at room temperature with 20 μL of Protein A-agarose plus 2 μg of anti-Tenascin R (TnR; E-18, Santa Cruz Biotech.), anti-Tenascin C (TnC; 300-3, Santa Cruz Biotech.), anti-CD44 (DF1485, Santa Cruz Biotech.), anti-Plexin-A1 (Pl A1; H-60, Santa Cruz Biotech.) or murine IgG1 (Sigma Chem. Co.). After washing 5 times with lysis buffer, the immunoprecipitated polypeptides were eluted from the Protein A-agarose by boiling in SDS-PAGE sample buffer. The eluted material and 2 μg aliquots of the starting material were then subjected to SDS-PAGE, transfer to PVDF membranes and blotting with chemiluminescent horseradish peroxidase (HRP)-conjugated streptavidin (HRP-SA).
In FIG. 3 SKOV3 cells were incubated with or without 100 μM Å6Cbiotin (Å6CbioXL and control, respectively) for 30 minutes at 4° C. The cells were then crosslinked with 5 mM BS3 for 30 min at 4° C. […]

Another assay relates to A2780 cells. Briefly: Adhesion of A2780 cells to hyaluronic acid. Format: cell-based. The note with it: immobilized HA; 1 or 10 μM Å6. The protocol: In FIG. 12 A2780 cells were cultured overnight with or without 10 μM Å6 or 100 ng/ml PMA. The cells were then detached, washed and loaded with 20 μg/ml CFDA-SE for 30 min at 37° C. After washing, the cells were resuspended in PBS containing 10% FCS and triplicate aliquots representing 100,000 cells incubated for 30 min at room temperature with no additions, 1 or 10 μM Å6 or with 20 ng/ml IM7, a blocking anti-CD44 rat monoclonal antibody. The cells were then placed into microtiter wells that had been coated with 50 ul of 1 mg/ml HA overnight and blocked for 30 min with 10% FCS. The cells were allowed to adhere at room temperature for 30 min after which, the wells were decanted and washed 3 times. The fluorescence in each well was assessed (excit./emiss.: 460/536 nm) and the mean fluorescence values (+/standard deviation) of the triplicate determinations calculated.

“Also recorded” adds a separate entry of the source.

T1 sequence (P16070 21-742): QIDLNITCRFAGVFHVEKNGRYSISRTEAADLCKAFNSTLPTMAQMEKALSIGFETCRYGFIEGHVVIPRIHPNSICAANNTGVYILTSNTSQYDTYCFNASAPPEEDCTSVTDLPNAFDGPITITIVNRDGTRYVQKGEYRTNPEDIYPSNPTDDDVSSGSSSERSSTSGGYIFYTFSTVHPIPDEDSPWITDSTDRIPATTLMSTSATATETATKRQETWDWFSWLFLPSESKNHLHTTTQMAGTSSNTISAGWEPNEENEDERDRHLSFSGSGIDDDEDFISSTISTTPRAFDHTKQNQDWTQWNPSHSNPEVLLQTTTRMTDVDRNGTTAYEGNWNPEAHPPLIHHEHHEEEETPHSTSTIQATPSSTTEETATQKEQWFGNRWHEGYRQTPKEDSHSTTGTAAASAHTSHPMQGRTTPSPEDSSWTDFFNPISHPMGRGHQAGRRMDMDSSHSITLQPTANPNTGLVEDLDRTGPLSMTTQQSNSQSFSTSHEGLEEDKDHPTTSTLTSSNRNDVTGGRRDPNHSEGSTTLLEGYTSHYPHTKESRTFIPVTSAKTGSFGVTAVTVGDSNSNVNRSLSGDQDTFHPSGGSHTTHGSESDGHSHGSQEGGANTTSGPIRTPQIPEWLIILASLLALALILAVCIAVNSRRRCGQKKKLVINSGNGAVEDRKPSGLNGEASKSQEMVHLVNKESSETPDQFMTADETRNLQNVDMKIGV

As for “acetyl-Lys-Pro-Ser-Ser-Pro-Pro-Glu-Glu-NH2 (Ac-KPSSPPEE-NH2) [Å6]”, the “target of the peptide identified by anti-CD44 immunoprecipitation” value with CD44 is “targets CD44; also recorded: confirm CD44 as the target”. Also, the “binding of A2780 cells to HA” value in the assay with A2780 cells is reported as “does not substantially modulate”.
